According to IntAct's records for PubMed 19494114:

B1: Receptor-type tyrosine-protein phosphatase eta (Homo sapiens), Q12913 (parent)
chain: MKPAAREARLPPRSPGLRWALPLLLLLLRLGQILCAGGTPSPIPDPSVATVATGENGITQISSTAESFHKQNGTGTPQVETNTSEDGESSGANDSLRTPEQGSNGTDGASQKTPSSTGPSPVFDIKAVSISPTNVILTWKSNDTAASEYKYVVKHKMENEKTITVVHQPWCNITGLRPATSYVFSITPGIGNETWGDPRVIKVITEPIPVSDLRVALTGVRKAALSWSNGNGTASCRVLLESIGSHEELTQDSRLQVNISGLKPGVQYNINPYLLQSNKTKGDPLGTEGGLDASNTERSRAGSPTAPVHDESLVGPVDPSSGQQSRDTEVLLVGLEPGTRYNATVYSQAANGTEGQPQAIEFRTNAIQVFDVTAVNISATSLTLIWKVSDNESSSNYTYKIHVAGETDSSNLNVSEPRAVIPGLRSSTFYNITVCPVLGDIEGTPGFLQVHTPPVPVSDFRVTVVSTTEIGLAWSSHDAESFQMHITQEGAGNSRVEITTNQSIIIGGLFPGTKYCFEIVPKGPNGTEGASRTVCNRTVPSAVFDIHVVYVTTTEMWLDWKSPDGASEYVYHLVIESKHGSNHTSTYDKAITLQGLIPGTLYNITISPEVDHVWGDPNSTAQYTRPSNVSNIDVSTNTTAATLSWQNFDDASPTYSYCLLIEKAGNSSNATQVVTDIGITDATVTELIPGSSYTVEIFAQVGDGIKSLEPGRKSFCTDPASMASFDCEVVPKEPALVLKWTCPPGANAGFELEVSSGAWNNATHLESCSSENGTEYRTEVTYLNFSTSYNISITTVSCGKMAAPTRNTCTTGITDPPPPDGSPNITSVSHNSVKVKFSGFEASHGPIKAYAVILTTGEAGHPSADVLKYTYEDFKKGASDTYVTYLIRTEEKGRSQSLSEVLKYEIDVGNESTTLGYYNGKLEPLGSYRACVAGFTNITFHPQNKGLIDGAESYVSFSRYSDAVSLPQDPGVICGAVFGCIFGALVIVTVGGFIFWRKKRKDAKNNEVSFSQIKPKKSKLIRVENFEAYFKKQQADSNCGFAEEYEDLKLVGISQPKYAAELAENRGKNRYNNVLPYDISRVKLSVQTHSTDDYINANYMPGYHSKKDFIATQGPLPNTLKDFWRMVWEKNVYAIIMLTKCVEQGRTKCEEYWPSKQAQDYGDITVAMTSEIVLPEWTIRDFTVKNIQTSESHPLRQFHFTSWPDHGVPDTTDLLINFRYLVRDYMKQSPPESPILVHCSAGVGRTGTFIAIDRLIYQIENENTVDVYGIVYDLRMHRPLMVQTEDQYVFLNQCVLDIVRSQKDSKVDLIYQNTTAMTIYENLAPVTTFGKTNGYIA

Variants of: B1
Conditions: with mk03_human MAPK3, P27361
Chain of mk03_human MAPK3, P27361 (P27361 whole entry): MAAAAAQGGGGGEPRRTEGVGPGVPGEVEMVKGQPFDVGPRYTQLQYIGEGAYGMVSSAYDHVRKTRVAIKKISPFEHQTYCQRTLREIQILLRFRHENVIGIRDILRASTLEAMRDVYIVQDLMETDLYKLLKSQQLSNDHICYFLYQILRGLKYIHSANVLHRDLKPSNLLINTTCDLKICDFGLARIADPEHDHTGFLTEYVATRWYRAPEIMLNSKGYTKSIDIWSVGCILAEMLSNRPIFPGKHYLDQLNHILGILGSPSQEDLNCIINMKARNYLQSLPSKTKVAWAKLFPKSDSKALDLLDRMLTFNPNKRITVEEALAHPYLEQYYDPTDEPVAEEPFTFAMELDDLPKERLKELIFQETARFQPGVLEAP

Row | Variant | effect of a mutation on the interaction
1 | K1031A | decreasing interaction
